Test results published in patent US7030099B2, “Tumor specific promoters of the midkine gene that allow for selective expression in P53-inactivated cells” (Research Corporation Technologies, Inc., priority 2000, dated 2006).

What was measured:
lung cancer cells QG-56 = test: In vitro sensitivity to GCV of MK0.6-TK-introduced cells; assay type: cell-based, human
Description: (§1) (2) Then, the tumor-specificity of this MK0.6 promoter was examined using the human tumor cells and normal fibroblasts. As described above, MK0.6-TK was introduced into various types of cells using lipofectin, and they were cultured in the presence of 400 μg/ml of G418 for ten days to obtain cells in which the MK0.6-TK gene was expressed. Thus, these gene-introduced cells were plated at 500 cells/well of 96-well culture plates, and were cultured in the presence of various concentrations of GCV for seven days. The survival rate of the cells was examined using the Cell Counting Kit-8. The results obtained are shown in FIG. 3A, FIG. 3B and FIG. 3C.

[1] = as currently used for treatment of cytomegalovirus infections; cited from earlier work
normal MRC-5 cells = test: In vitro sensitivity to GCV of promoter-TK gene-introduced cells (Cell Counting Kit-8 survival); assay type: cell-based, human; details: HSV-TK gene controlled by the promoter, GCV seven days, FIG. 2A
Description: (§2) (1) In order to examine cytotoxic effects by the transcription activity of the promoter obtained from the midkine gene, herpes simplex virus thymidine kinase (HSV-TK), a suicide gene, was ligated downstream of MK0.6 and MK2.3, and the plasmid was introduced in cells, and a prodrug gancyclovir (GCV) was added into the culture medium of the gene-introduced cells. The method of determining the cytotoxic effect by this system is as described in Moolten, FL. Cancer Gene Ther., 1:279–287, 1994.
(§3) First, the CMV promoter of pcDNA3 (manufactured by Invitrogen) was removed using NruI and HindIII sites, to which MK2.3 or Mk0.6 was inserted, and then using the EcoRV site, the HSV-TK gene excised from pMK (Brinster, R L et al., Cell, 27:223–231, 1981) with BglI and EcoRI was inserted. Each of the plasmids thus obtained (MK2.3-TK and MK0.6-TK) was introduced, as described above, using lipofectin into MRC-5 which are normal cells, or MRC-5 cells that had been immortalized by inactivating the functions of the p53 tumor suppressor gene. In order to utilize the expression of the Neo gene contained in pcDNA3 as drug resistant markers, the cells were cultured with 400 μg/ml of G418 (manufactured by Life Technologies) for ten days to establish the cells that expressed MK2.3-TK and MK0.6-TK, respectively. These cells were then plated at 500 cells/well of 96-well culture plates, and were cultured in the presence of various concentrations of GCV (manufactured by F. Hoffman-La Roche) for seven days. The survival rate of the cells was examined using the Cell Counting Kit-8 (manufactured by Dojin Kagaku). The survival of the cells at a GCV concentration of 0 μg/ml was set as 100%, and the survival for each experiment group is shown in terms of percentage in FIG. 2A and FIG. 2B.

[2] = test system: immortalized MRC-5 cells (p53 functions inactivated); test: as above; assay type: cell-based, human; details: HSV-TK gene powered by the promoter, GCV seven days, FIG. 2B
Description: as §2, §3

neuroblastoma NGP cells = test: In vitro sensitivity to GCV of MK0.6-TK-introduced cells; assay type: cell-based, human; details: MK0.6-TK-introduced NGP; GCV seven days; FIG. 3B
Description: as §1

normal fibroblasts HEF = test: as above; assay type: cell-based, human; details: MK0.6-TK-introduced HEF; GCV seven days; FIG. 3C
Description: as §1

[3] = test system: normal human fibroblasts MRC-5; test: CAT assay of promoter transcription activity, normal cells; assay type: cell-based; details: FIG. 1
Description: (§4) Using the above plasmid, or a plasmid pCAT-Control (manufactured by Promega) having the promoter of SV40 virus, and a plasmid pCAT-Basic (manufactured by Promega) containing no promoters, gene introduction was performed on the lung cancer cells QG-56, the neuroblastoma NGP, and the normal human fibroblasts MRC-5 that were being cultured in a DMEM (Sigma) supplemented with 10% bovine fetal serum. After 10 μg each of these plasmids and lipofectin (Life Technologies) were mixed, it was allowed to stand at room temperature for 30 minutes to form a complex. Then the complex, after removing the bovine fetal serum therefrom, was contacted with the cells. Eight hours later culture medium supplemented with bovine fetal serum was added, cultured for 40 hours, and then the gene-introduced cells were disrupted by ultrasonication. After centrifugation, the supernatants were used to examine their transcription activities with the known CAT assay method (Gorman, C M et al., Mol. Cell. Biol., 2:1044–1051, 1982) using [^14C]-chloramphenicol and acetyl CoA. At this time, in order to normalize the efficiency of gene introduction, 1 μg of the β-galactosidase gene (pCH110, manufactured by Amersham) was introduced at the same time, and the β-galactosidase activity (Heromel, P. et al., Cell, 39:653–662, 1984) was determined.

[4] = test system: lung cancer cells QG-56, neuroblastoma NGP; test: CAT assay of promoter transcription activity, tumor cells; assay type: cell-based, human
Description: as §4

immortalized MRC-5 cells = test: Luciferase assay of MK0.6 promoter activity under expression of wild-type p53; assay type: cell-based, human; details: FIG. 5
Text: In at least about 50% of human solid tumors, the loss of p53 gene functions is observed, and forced expression of-the wild-type p53 gene in tumors arrests tumor growth in some cases. Thus, using the MRC-5 cells that had been immortalized by destroying the functions of the p53 gene, DNA plasmid was introduced in which the luciferase gene, a reporter gene, was ligated downstream of the MK0.6 promoter, and the transcription activity of the MK0.6 promoter under the expression of the wild-type p53 gene was examined.
For this purpose, the MK0.6-CAT plasmid prepared in Example 1 was cleaved with HindIII, and the MK0.6 kb gene obtained was inserted into the HindIII site of pGL2-Basic (manufactured by Promega). […] After 48 hours-culture, the cells were disrupted using the Dual-Luciferase Reporter Assay System (manufactured by Promega), and the Firefly luciferase activity therein was determined using the reagents in the same kit. In order to normalize the efficiency of transfection, 1 μg of pRL-TK plasmid (manufactured by Promega) was included in each transfection, and the Renilla luciferase activity by the TK promoter was determined, based on which the Firefly luciferase activity was corrected.

[5] = test system: lung cancer cells QG-56, PC-1, human breast cancer cells BT549; test: Luciferase assay of midkine promoter activity in tumor cells; assay type: cell-based; details: FIG. 6
Text: Using the PCR method based on the information of the midkine genomic DNA, a DNA fragment that corresponds to a 335 bp region (MK335bp) from −285 to +50 and that has the base sequence set forth in SEQ ID NO: 4 was synthesized, and after confirming the sequences, it was inserted into pCR2.1 (manufactured by Invitrogen). After excising MK335bp from this DNA, it was ligated to pGL2-Basic (manufactured by Promega) to construct a plasmid for detecting promoter activity. Furthermore, using pGL2-Control (manufactured by Promega) containing the promoter of SV40 virus and pGL2-Basic containing a similarly constructed 609 bp midkine promoter (MK0.6), promoter activity was examined by the following method.
The lung cancer cells QG-56, PC-1, and human breast cancer cells BT549 that were cultured in DMEM (Sigma) supplemented with 10% bovine fetal serum, were transfected. After 10 μg each of these plasmids and lipofectin (manufactured by Life Technologies) were mixed, it was allowed to stand at room temperature for 30 minutes to form a complex. […] In order to normalize the efficiency of gene introduction, 1 μg of pRL-TK plasmid (manufactured by Promega) was included in each gene introduction group, and the Renilla luciferase activity by the TK promoter was determined, based on which the Firefly luciferase activity was corrected.

## Nc1nc(O)c2ncn(COC(CO)CO)c2n1 [GCV, gancyclovir, reference compound]
Lung cancer cells QG-56; MK0.6-TK-introduced tumor cells (QG-56, NGP)
  concentration at which the cytotoxic effects by GCV was obtained: 100 ng/mL
[1]
  maximum blood concentration of GCV: 1 µg/mL

B1: MK0.6: 0.6 kb (609 bp, −559 to +50) of the human midkine genomic gene, base sequence SEQ ID NO: 1 (nucleic acid, listed as Homo sapiens)
DNA: GCTTCCCTGCCCACCCGCGGAAACCGCCCCAGGTGGCCGCGCCCCCTCCCCAGCAGCCAGCAGGGCGCCAGGGCTGAGCCGGCCGTGGAGGGGAGCGGGTCCCGGGGGTTATACAGGCGCCGGGCGTCCGCGGCAGGCAAGAGAAGCTGAGGCCTGAGAACGGCCCGGGCCTTGGCGTACGGCAGGGGACGACCTGGGATGGGGGCAGCGGGCGGCGGCGCAGGGAGTGGGCCGGGGCCGGTGTGCGCGGGCGGGACGGGGCCGGGGTCGGGAGACCACCGCTCGGAAGATGGGGCCGGGAGAGGCCGCCGTCGCAGCGCAGAGGGCACCGGCGGGGAGACGCGAGGACGCGGGGCCGGGAACACGGACGCCGGAGTAGAAGCGCGGGGGGGGCGGGCTGGAGCGGGGGCGGGGACGCCGGGGTCGGGGGCGGTGCGGGTTTGAGGGGAGGGGGCGGGGCGGGTCCTTCCCTGGGGGGGTGGGGAGAGGGGGCGGGGGCCCATGTGACCGGCTCAGACCGGTTCTGGAGACAAAAGGGGCCGCGGCGGCCGGAGCGGGACGGGCCCGGCGCGGGAGGGAGCGAAGCAGCGCGGGCAGCGAGCGAGTGAG
Normal MRC-5 cells
  sensitivity to GCV compared to that of the parent strain: identical with that of the parent strain
[2]
  sensitivity to GCV compared to that of the parent strain: 1000 fold
Neuroblastoma NGP cells
  sensitivity to GCV compared to parent strain: 1000 fold
Lung cancer cells QG-56; MK0.6-TK-introduced QG-56, GCV seven days, FIG. 3A
  sensitivity to GCV compared to parent strain: 1000 fold
Normal fibroblasts HEF
  sensitivity to GCV compared to parent strain: remained the same
[3]
  transcriptional activity compared with other midkine promoter fragments: rather decreased in the normal cells
[4]; tumor cells versus normal cells
  tumor-specificity of promoter activity: specifically strong in tumors
[4]; tumor cells, FIG. 1
  transcriptional activity compared with other midkine promoter fragments: more potent in the tumor cells than MK1.0 or MK2.3
  transcriptional activity compared with promoter of SV40 virus: more potent than the promoter of SV40 virus in the tumor cells
Immortalized MRC-5 cells; CMV-p53 0–1 μg co-transfected
  MK0.6 promoter activity with increasing amounts of CMV-p53 plasmid: decreased
Immortalized MRC-5 cells; CMV-p53R 0–1 μg co-transfected
  MK0.6 promoter activity with control CMV-p53R plasmid: no changes

B2: MK335bp: 335 bp midkine region from −285 to +50, base sequence SEQ ID NO: 4 (nucleic acid, listed as Homo sapiens)
DNA: ACCACCGCTCGGAAGATGGGGCCGGGAGAGGCCGCCGTCGCAGCGCAGAGGGCACCGGCGGGGAGACGCGAGGACGCGGGGCCGGGAACACGGACGCCGGAGTAGAAGCGCGGGGGGGGCGGGCTGGAGCGGGGGCGGGGACGCCGGGGTCGGGGGCGGTGCGGGTTTGAGGGGAGGGGGCGGGGCGGGTCCTTCCCTGGGGGGGTGGGGAGAGGGGGCGGGGGCCCATGTGACCGGCTCAGACCGGTTCTGGAGACAAAAGGGGCCGCGGCGGCCGGAGCGGGACGGGCCCGGCGCGGGAGGGAGCGAAGCAGCGCGGGCAGCGAGCGAGTGAG
[5]
  promoter activity compared with MK0.6: almost the same activity as that of MK0.6
